# Experiment: soluble on expression in E. coli; label from the status in PepcDB or PDB records
row,Sequence,soluble on expression in E. coli
1,MKRPDYRTLQALDAVIRERGFERAAQKLCITQSAVSQRIKQLENMFGQPLLVRTVPPRPTEQGQKLLALLRQVELLEEEWLGDEQTGSTPLLLSLAVNADSLATWLLPALAPVLADSPIRLNLQVEDETRTQERLRRGEVVGAVSIQHQALPSCLVDKLGALDYLFVASKPFAERYFPNGVTRSSLLKAPAVAFDHLDDMHQAFLQQNFDLPPGSVPCHIVNSSEAFVQLARQGTTCCMIPHLQIEKELESGELINLTPGLLQRRMLYWHRFAPESRMMRKVTDALLEYGHKVLRQD,not soluble
2,MEVKYGLHPTLGEHGERELLALQKVDYPKGDVKAQAKHTARTLLECYNCHSLGEYNTLLNLYNITVYEVRGSVDGKEYHGIMYGALDDNGQQVGTPFKSSKFGKVFGYEALQKKFAASAEKVKKDNLPERLEHHHHHH,not soluble
3,MRPDVAFALPALAGGGVERVYLDLAGAMVKEGLRVDFVLARAEGPLLAQLPQGVRLWDLGVPRRLPLLRAYTPLGVYLAQARPRVVLPDWDYLDWVPLQAAWRSRTPFLWVLHNAPAYLKDVPNPVKRHTALWAARQTLKRAVNHPLGRVGAVSRGVAQAFARFGGVPEERICVLPNPIHVDRVRRLSHENVPLPATPYFLALGRLHPQKGFSLLLEAFSIFAKHHPDVHLLILGEGPERPRLEKLAHTLGLTSRVAFLGFVVNPYPYLRGAKALVITSRYEGFSMVALEALALRVPVVAVESEGGLLEALGDGRFGIVTPRSPQALAHAMERVLSDGFAWDETALKDHLNQYSPEAALRSYMSVLEEIWR,soluble
4,MGIHFVDKADLWKSALLFNLKLRDRFRIAVDDHRGRATDLTAEEESALFRMLQTVAVPLIGNACHVFMNGFNRVQVYGLEKLHDALLNRPKNKPLVTVSNHVASVDDPFVIASLLPPKFLLDARNLRWTLCATDRCFKNPVTSAFSRSVKVLPISRGEGIYQQGMDIAISKLNNGGWVHIFPEGSRSRDGGKTMGSAKRGIGRLILDADTLPMVVPFVHTGMQDIMPVGASVPRIGKTVTVIIGDPIHFNDILSTEGAQHVSRKHLYDAVSSRIGQRLYDLKAQVDRVYIEQQSMMSHNAKTPSDRAAEIFHRVDWDSFGMGAQFSEESSPSSKPIGQSDDRIVRSPKRRVSPEGGVSLKIKKLMDSTEMMGFAARGLLMNEYKSRVESANVGRPLKAWREYFMNRGL,soluble
5,MGRIYLKKAKSEEDLLKRGRPFTVEVDELKIPFCVSPVTNTFDNKKKVFLTFLGPVKQFHEAIHLCITSLYRPTPYNKYELTTNVDDLTCTPDIKNMKESYLATIKSESLNASTIDNFLSKKTSIEKLTLGMKVLDNFQEDSAIFRMKYFWFTYSLEHAPIVLSKFQGTHLWMTDANIKNEDIISFLNTWQNSECDRKIFEIKVSEGMNPLNPDIVYEDIDVSDWDPAERPKEFNFVSTFFPENFNKVYDCSTWMDIKRSGDGKIASICITSNAFKFLVWD,not soluble
6,MFKPELLSPAGTLKNMRYAFAYGADAVYAGQPRYSLRVRNNEFNHENLQLGINEAHALGKKFYVVVNIAPHNAKLKTFIRDLKPVVEMGPDALIMSDPGLIMLVREHFPEMPIHLSVQANAVNWATVKFWQQMGLTRVILSRELSLEEIEEIRNQVPDMEIEIFVHGALCMAYSGRCLLSGYINKRDPNQGTCTNACRWEYNVQEGKEDDVGNIVHKYEPIPVQNVEPTLGIGAPTDKVFMIEEAQRPGEYMTAFEDEHGTYIMNSKDLRAIAHVERLTKMGVHSLKIEGRTKSFYYCARTAQVYRKAIDDAAAGKPFDTSLLETLEGLAHRGYTEGFLRRHTHDDYQNYEYGYSVSDRQQFVGEFTGERKGDLAAVAVKNKFSVGDSLELMTPQGNINFTLEHMENAKGEAMPIAPGDGYTVWLPVPQDLELNYALLMRNFSGETTRNPHGK,soluble
7,GPGSMSLPCPSSSSPLLGSITSGVRSPSRGPVQQQQLLHQRHASMRLRLHKDGSICACPEKSGGGVSQACAPPLPATSAFARGKEEPSAKRHHAEPSSCPGPGGDSSSVDRSAAATVVTIAAPLLSIPNPSSRAAPSPFRFLCTSVGGCPVVGAKDARVHLPDSSARCDVSGSVAPRDLSTTSAHSKAHSTAAVGRASPSSGVVSPPLSATYPSLVSASHGARVVCSHPQSASASTVPGATIDTSAPSPVPSPPHRIHQHELRPADFRREEVLGEGSYSIVTLATHRASGLSFALKEIDRSRLRWRPLEAQLRWEINLQRTLRHPHIVRLYSYFITPDCISLVLEYCSGGTLLSRLRAAPQYRLSERQASRYTRHVAKALVHLHGLGVAHRDLKLENVLIDADGIAKLADFGWSRSVVHPLPSSKSAAAAQTAGDRNDAPCSSAEHNTSNEDPTEGVAEGRRTVCGTLDYLSPEMVSGQAHSAKTDVWSLGVMLAEMLTGTPPFYTESTQETLYAIQRLPPNLTGLHPKGHGPGLTGSGASTSASVCLILDEPVALSAGALSLIHAMLQKDPSARPTMPEVLGHPWLQKKKLARKS,not soluble
8,MAHHHHHHMTSQPHVTMSKNTGSVTEQHKRMSHTTGDNNEEEKHILAGRYKTKLCKNYVARGECPYDVRCMFAHGEDELRTSDDNIRDGLVTEEAIKDFQRQQNQAKRRAAFAAAREHNNHDHSHSHNHSHSHNHTVRPVPHGNVYEMEENVESNEVYRNRNRHHNLRLHPPQEPVSIPQPQQQQQQEQQFQLQSVVAQYYTHNPYVFDLIPAAARLFPVYQEVVEEGCWYEEEPVPAQEDYYFPSSDMMMPLVPSLVTQQYLPYPHQQCSKQLETVASASTYSCEEAMYGHSESSASSAYRSVARCTAAELPSNSDIPAMVMEP,not soluble
9,MNVRVLVVEDERDLADLITEALKKEMFTVDVCYDGEEGMYMALNEPFDVVILDIMLPVHDGWEILKSMRESGVNTPVLMLTALSDVEYRVKGLNMGADDYLPKPFDLRELIARVRALIRRKSESKSTKLVCGDLILDTATKKAYRGSKEIDLTKKEYQILEYLVMNKNRVVTKEELQEHLWSFDDEVFSDVLRSHIKNLRKKVDKGFKKKIIHTVRGIGYVARDE,soluble
10,MHHHHHHSSGRENLYFQGIPTISELKKDRIIPHVFPNDKIDLNVDLFISFKAGKEVNHGNVLDIAGTGSVPRNIKFSEEPPDGYCFVLFMVDPDYPSRLRPDGKEYIHWVVSGIKTKELIKGTQKNCVTILPYVGPSIKKGTGLHRISFIISLIKEEDKDNITGLPHYKGEKYITRVKFNNYESVHNIAQINNMKIVGYNWCQIE,soluble
11,MGSDKIHHHHHHMSTLDQSGTFHLAGRNIRRLGYGAMQLAGKGVFGPPKDREEAIAVVREAVDSGVNHIDTSDFYGPHITNQIIREALHPYADDLLIVTKVGATRGEDASWNAAFSKEELTQAVHDNLRNLGKEVLDVVNLRAMFDVHGPAEGSLAAPLEVLADLQRQGLIRHIGVSNVTPRQITEAGEIVEIVCVQNQYNLAHRQDDALIDTLAAQGIAYVPFFPLGGFSPLQSTVLSDVATQLDASPLQVALAWLLKRSSNILVIPGTSSRAHLRQNLAAASLDLPDSAMTALAAIGG,not soluble
12,MAGDPMNFVTTLTYLLPHRMLSSLARHVAYCQHPLIKQWLIDTVIAKFDVNLSEAAEPDAHAYPSFNAFFTRSLKTGIRLPDPNPDTLLMPADGRISQLGPIREGRIFQAKGQSFTATELLGDTAAAAAFTNGLFATVYLSPRDYHRVHMPCTGQLLKTVHVPGRLFSVGPDAVRQIPRLFARNERLACHFDTAFGPMVLVMVGALLVSGVETVWGGVEIPAYGDRITHKDYQGRNIAIERFAEMARFNYGSTVIVLLPPNVFTLAPHLTAESPVTLGQALAHRLSLNHSTQAPTQEKLEHHHHHH,not soluble
13,MAFDKKLLDIVACPVCKGKLEYDKVAQQLICKADKLAYPITDGIPVLLENRALPLTESV,not soluble
14,MAGDPMRLEIAEKYMAEAYEYLKKGDTIQASGKAYKVAEEIVKAIKFLISKLIGQDVGVISPYRTQVRKLDQELANYKPYVEVNTVDAFQGREKDVIIFSVTATNGLRFVTNRRRLNVAFTRPRYKLIVLGNENSIMSCQMTICLEHHHHHH,not soluble
15,GMTILSDVKALGQQIWLDNLSRSLVQSGELAQMLKQGVCGVTSNPAIFQKAFAGDALYADEVAALKRQNLSPKQRYETMAVADVRAACDVCLAEHESTGGKTGFVSLEVSPELAKDAQGTVEEARRLHAAIARKNAMIKVPATDAGIDALETLVSDGISVNLTLLFSRAQTLKAYAAYARGIAKRLAAGQSVAHIQVVASFFISRVDSALDATLPDRLKGKTAIALAKAAYQDWEQYFTAPEFAALEAQGANRVQLLWASTGVKNPAYPDTLYVDSLIGVHTVNTVPDATLKAFIDHGTAKATLTESADEARARLAEIAALGIDVETLAARLQEDGLKQFEEAFEKLLAPLV,soluble

# Source: the DeepSol protein solubility set
